Experimental data as given in publication PMC4751086 (2016).
Numbering of substitutions follows the chain as printed.

Legend:
[1] = target: T1, HD-PTP(1–361;T145K) (human, UniProt Q9H3S7 1-361, T145K); experiment: ITC
T1 sequence: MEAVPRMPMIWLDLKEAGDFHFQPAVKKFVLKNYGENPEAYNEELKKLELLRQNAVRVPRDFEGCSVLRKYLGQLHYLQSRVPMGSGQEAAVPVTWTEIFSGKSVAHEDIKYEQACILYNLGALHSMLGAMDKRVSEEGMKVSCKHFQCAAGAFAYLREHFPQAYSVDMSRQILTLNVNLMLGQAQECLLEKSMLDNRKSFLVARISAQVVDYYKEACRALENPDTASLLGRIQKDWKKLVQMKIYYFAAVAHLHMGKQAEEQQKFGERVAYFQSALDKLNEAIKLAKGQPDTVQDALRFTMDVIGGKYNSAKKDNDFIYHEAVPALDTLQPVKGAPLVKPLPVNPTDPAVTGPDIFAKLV

[2] = target: T2, HD-PTP(1–361;T145R) (human, UniProt Q9H3S7 1-361, T145R); experiment: ITC
T2 sequence: T1 sequence with K145R

KEEEDDDMKELENWAGSM [CHMP4B(207–224)] showed a Kd [1] of 4.02 µM and a Kd [2] of 3.89 µM.
